Assay results reported in US20190389958A1, “ANTI-CXCR4 ANTIBODIES” (MSM Protein Technologies, Inc., priority 2017, published 2019).

Target: human CXCR4 (human) (UniProt P61073)
Assay: flow cytometry, IgG 10 µg/mL, CXCR4-expressing Ramos (RA1) cells

human CXCR4 (human), sequence (P61073 whole entry): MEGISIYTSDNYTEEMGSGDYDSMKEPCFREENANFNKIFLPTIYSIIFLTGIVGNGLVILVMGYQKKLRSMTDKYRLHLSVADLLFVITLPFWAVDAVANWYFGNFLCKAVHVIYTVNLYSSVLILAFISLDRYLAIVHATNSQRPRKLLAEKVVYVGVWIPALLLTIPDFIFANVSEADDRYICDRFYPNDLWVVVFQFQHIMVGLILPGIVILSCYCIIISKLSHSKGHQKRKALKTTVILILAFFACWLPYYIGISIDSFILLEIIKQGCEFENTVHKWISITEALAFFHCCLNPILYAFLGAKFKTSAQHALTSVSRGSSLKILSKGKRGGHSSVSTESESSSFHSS

MFI: 42
Substance: human isotypic IgG1 kappa control (Coger Sarl, Paris, France) (antibody)
